Assay results as given in publication PMC5638086, “Assessment of the protein interaction between coagulation factor XII and corn trypsin inhibitor by molecular docking and biochemical validation” (Journal of Thrombosis and Haemostasis, 2017).
Like-named read-outs stand apart in the source and are kept apart here.

Legend:
[1] = biological target: Full length activated FXIIa (α‐FXIIa) (UniProt P00748)
Target sequence in this assay (P00748 20-615): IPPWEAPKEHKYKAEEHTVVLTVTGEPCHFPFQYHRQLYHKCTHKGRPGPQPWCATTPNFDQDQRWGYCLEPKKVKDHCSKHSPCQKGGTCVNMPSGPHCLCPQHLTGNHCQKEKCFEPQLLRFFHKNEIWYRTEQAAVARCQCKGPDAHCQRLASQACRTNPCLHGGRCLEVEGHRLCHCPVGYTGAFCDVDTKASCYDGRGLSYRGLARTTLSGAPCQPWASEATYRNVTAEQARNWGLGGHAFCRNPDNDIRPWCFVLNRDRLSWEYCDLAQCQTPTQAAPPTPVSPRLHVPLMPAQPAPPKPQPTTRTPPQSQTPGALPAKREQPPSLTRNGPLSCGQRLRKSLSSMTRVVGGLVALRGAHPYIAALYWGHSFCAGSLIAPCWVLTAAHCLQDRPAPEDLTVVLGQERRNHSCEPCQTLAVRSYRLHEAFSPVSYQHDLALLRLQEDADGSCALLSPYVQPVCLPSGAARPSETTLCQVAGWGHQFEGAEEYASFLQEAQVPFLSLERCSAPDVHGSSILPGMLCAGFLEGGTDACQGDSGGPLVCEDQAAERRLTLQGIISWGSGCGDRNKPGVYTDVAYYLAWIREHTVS

[2] = biological target: Full length activated FXIIa (α‐FXIIa) (UniProt P00748); remark: listed apart in the source
α‐FXIIa [3] = biological target: T1, α‐FXIIa (Homo sapiens, UniProt P00748); assay: α‐FXIIa enzymatic assay (S‐2302 chromogenic substrate cleavage, pNA release); format: biochemical; details: CTI variant proteins 10^−8 M to 10^−5 M, 200 μM S‐2302, 10 nM α‐FXIIa, 33 °C, initial rate of first 30 min, A405; SE of the fit, n = 3–5 independent experiments; SEM
T1 construct: purchased Enzyme Research Laboratories (Swansea, UK)
T1 sequence (P00748 373-615 limits assumed): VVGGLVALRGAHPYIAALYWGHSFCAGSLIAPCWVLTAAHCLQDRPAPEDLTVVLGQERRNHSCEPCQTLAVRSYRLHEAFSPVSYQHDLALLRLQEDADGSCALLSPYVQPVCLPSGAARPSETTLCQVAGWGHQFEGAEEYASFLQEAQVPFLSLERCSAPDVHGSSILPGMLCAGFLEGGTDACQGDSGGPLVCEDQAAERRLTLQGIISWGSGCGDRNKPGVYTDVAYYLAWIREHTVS
T1 sequence (P00748 20-372 partner limits assumed): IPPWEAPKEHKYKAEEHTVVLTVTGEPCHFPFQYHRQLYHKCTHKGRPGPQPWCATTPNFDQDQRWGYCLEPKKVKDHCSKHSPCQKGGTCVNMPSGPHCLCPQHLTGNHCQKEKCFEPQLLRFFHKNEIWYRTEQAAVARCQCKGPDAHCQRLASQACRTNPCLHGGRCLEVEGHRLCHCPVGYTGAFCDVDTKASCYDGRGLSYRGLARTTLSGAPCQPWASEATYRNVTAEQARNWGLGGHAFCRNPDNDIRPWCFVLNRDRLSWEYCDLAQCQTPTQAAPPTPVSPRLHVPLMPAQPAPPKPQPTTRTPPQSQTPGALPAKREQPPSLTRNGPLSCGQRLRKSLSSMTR
Description: (§1) The enzymatic activity of α‐FXIIa was measured by monitoring the amount of pNA chromophore released from substrate H‐D‐Pro‐Phe‐Arg‐pNA (S‐2302). Assays were performed in a 100‐μL volume at 33 °C in 96‐well plates in a Perkin Elmer (Seer Green, UK) Envision plate reader, and pNA release was followed over a period of 6 h by reading the absorbance at 405 nm. Absorbance values were converted to pNA concentrations by comparison with a standard curve obtained under exactly the same instrument conditions. All absorbance values were within the linear measurement range of the instrument. Initial rates were calculated on the basis of the first 30 min of incubation. To assess the K M, concentrations of substrate peptide between 0.1 mM and 0.6 mM were incubated with 10 nM α‐FXIIa, enzymatic activity was measured as described above, and data were analyzed by non‐linear regression with the Michaelis–Menten algorithm (GRAPHPAD PRISM, version 6.04). To assess the inhibitory mechanism of CTI, 30 nM CTI was incubated with these same concentrations of substrate peptide, the reaction was initiated by the addition of 10 nM α‐FXIIa, enzymatic activity was measured as described above, and data were analyzed by non‐linear regression with the Michaelis–Menten algorithm (GRAPHPAD PRISM, version 6.04) and by linear regression after Lineweaver–Burk transformation. To assay inhibitors, concentrations of CTI variant proteins between 10^−8 M and 10^−5 M or concentrations of peptides between 10^−6 M and 10^−3 M were incubated with 200 μM substrate peptide, the reaction was initiated by addition of 10 nM α‐FXIIa, enzymatic activity was measured as described above, and IC50 values were determined by non‐linear regression analysis (GRAPHPAD PRISM, version 6.04) using the log[inhibitor] versus response – variable slope algorithm with a bottom constraint.

FVIIa = details: cited from earlier work
α‐FXIIa [4] = biological target: T1, α‐FXIIa; assay: Kinetic analysis of the CTI inhibitory mechanism (Michaelis–Menten / Lineweaver–Burk, S‐2302); format: biochemical; details: 0.1 to 0.6 mM substrate peptide, 10 nM α‐FXIIa
Description: as §1
Figure S3: analysis of CTI inhibitory mechanism
0.1 to 0.6 mM of substrate peptide was incubated without (open symbols) or with 30 nM CTI (closed symbols), after which 10 nM α -FXIIa (equalling to 1 pmol of enzyme) was added and enzyme activity was measured as described in the method section. Data were analysed by non-linear regression (top left panel) and linear regression after Lineweaver Burk […]

kallikrein = details: cited from earlier work
Source text: (§2) The canonical docking pose that we observed for FXIIa–CTI is similar to the trypsin–CTI and HGFA–CTI complexes predicted by CLUSPRO, albeit that there are fewer interactions overall for trypsin and HGFA, owing to Asp60A (H1 pocket) being absent in these proteases.

FIXa = details: cited from earlier work
Source text: as §2

thrombin = details: previous reports; cited from earlier work
FXIa = details: previous reports; cited from earlier work
[5] = biological target: Full length activated FXIIa (α‐FXIIa) (UniProt P00748); remark: listed apart in the source

RWYVTSRTAGIGPRLPWPELKR [CTI(21–42) synthetic peptide]
IC50 of inhibition of α‐FXIIa enzymatic activity (S‐2302 cleavage) [1]: 200 µM | pIC50 of inhibition of α‐FXIIa enzymatic activity (S‐2302 cleavage) [1]: 3.7

CRWYVTSRTAGIGPRLPWPELKRRC [CTI(20–44) synthetic peptide]
IC50 of inhibition of α‐FXIIa enzymatic activity (S‐2302 cleavage) [1]: 290 µM | pIC50 of inhibition of α‐FXIIa enzymatic activity (S‐2302 cleavage) [1]: 3.54

RWYVTSRTAGIGPRLPWPELKRR [CTI(21–43) synthetic peptide]
IC50 of inhibition of α‐FXIIa enzymatic activity (S‐2302 cleavage) [1]: 460 µM | pIC50 of inhibition of α‐FXIIa enzymatic activity (S‐2302 cleavage) [1]: 3.34

B1: commercial corn trypsin inhibitor (CTI) (natural protein)
chain: SAGTSCVPGWAIPHNPLPSCRWYVTSRTCGIGPRLPWPELKRRCCRELADIPAYCRCTALSILMDGAIPPGPDAQLEGRLEDLPGCPREVQRGFAATLVTEAECNLATIS
IC50 of inhibition of α‐FXIIa enzymatic activity (S‐2302 cleavage) [2]: 0.11 µM | pIC50 of inhibition of α‐FXIIa enzymatic activity (S‐2302 cleavage) [2]: 6.97 | pIC50 ± SE (α‐FXIIa [3]): 6.97 ± 0.04 | Inhibition of FVIIa, in words (FVIIa): does not inhibit | Inhibitory mechanism (α‐FXIIa [4]; 30 nM CTI): competitive inhibitory mechanism | Ki (α‐FXIIa [4]; 30 nM CTI, Fig. S3): 0.029 ± 0.004 µM | kcat (α‐FXIIa [4]; in the presence of 30 nM CTI, Fig. S3): 15 ± 2 | Km (α‐FXIIa [4]; in the presence of 30 nM CTI, Fig. S3, read-out: Km app): 301 ± 72 µM | Inhibition of kallikrein, in words (kallikrein): does not inhibit | Inhibition of FIXa, in words (FIXa): does not inhibit | Inhibition of thrombin, in words (thrombin): does not inhibit | Inhibition of FXIa, in words (FXIa): weakly inhibits | pIC50 of inhibition of α‐FXIIa enzymatic activity (S‐2302 cleavage) [5]: 6.95

YVTSRTAGIGPRLPWPELKRR [CTI(23–43) synthetic peptide]
IC50 of inhibition of α‐FXIIa enzymatic activity (S‐2302 cleavage) [1]: 1100 µM | pIC50 of inhibition of α‐FXIIa enzymatic activity (S‐2302 cleavage) [1]: 2.94
